Values quoted from earlier work as cited in PMC3166722.
Where two headings read alike, the source gives them in different places.

Tests used:
[1] = target: GPC (trypsinized IOVs) (Homo sapiens) (UniProt P04921); assay: IOV binding, Scatchard analysis
[2] = target: CaM (Homo sapiens) (UniProt P0DP23); assay: resonant mirror detection (IAsys)
[3] = target: CaM (Homo sapiens) (UniProt P0DP23)

Sequence of GPC (trypsinized IOVs) (Homo sapiens) (P04921 whole entry): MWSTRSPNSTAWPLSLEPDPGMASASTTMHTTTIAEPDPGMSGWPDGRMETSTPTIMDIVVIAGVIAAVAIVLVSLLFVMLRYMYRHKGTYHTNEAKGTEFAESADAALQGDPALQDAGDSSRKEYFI
Sequence of 4.1R80 (P11171 whole entry): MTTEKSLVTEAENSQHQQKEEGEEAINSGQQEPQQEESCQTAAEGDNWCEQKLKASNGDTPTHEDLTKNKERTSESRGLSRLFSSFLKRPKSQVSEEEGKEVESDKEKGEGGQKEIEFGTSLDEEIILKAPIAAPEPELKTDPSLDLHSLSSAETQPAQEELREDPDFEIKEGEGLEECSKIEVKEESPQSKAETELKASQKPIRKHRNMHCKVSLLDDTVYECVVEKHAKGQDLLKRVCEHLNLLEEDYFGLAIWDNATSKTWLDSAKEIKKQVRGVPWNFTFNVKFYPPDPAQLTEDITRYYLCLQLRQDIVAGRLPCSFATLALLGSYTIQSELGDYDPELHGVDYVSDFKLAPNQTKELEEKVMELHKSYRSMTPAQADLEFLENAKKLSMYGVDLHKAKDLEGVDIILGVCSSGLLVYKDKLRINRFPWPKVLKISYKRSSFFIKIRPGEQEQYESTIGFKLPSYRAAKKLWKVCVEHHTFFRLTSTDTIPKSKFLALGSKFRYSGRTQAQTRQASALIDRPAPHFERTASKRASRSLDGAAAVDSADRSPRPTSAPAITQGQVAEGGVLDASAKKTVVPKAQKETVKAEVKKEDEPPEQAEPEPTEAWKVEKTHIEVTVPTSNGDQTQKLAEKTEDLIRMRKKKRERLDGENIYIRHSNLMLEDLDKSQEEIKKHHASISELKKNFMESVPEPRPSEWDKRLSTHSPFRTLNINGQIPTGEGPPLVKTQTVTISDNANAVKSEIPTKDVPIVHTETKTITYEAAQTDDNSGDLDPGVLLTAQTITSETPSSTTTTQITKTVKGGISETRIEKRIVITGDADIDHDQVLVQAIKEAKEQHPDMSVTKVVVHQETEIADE
Sequence of 4.1R135 (P11171 whole entry): as above

Row | Kd [1] [nM] | Kd [2] [nM] | Kd [3] [nM] | Substance
1 | 2000 | 51 |  | 4.1R135 (from UniProt P11171)
2 |  |  | 10 | 4.1G (from UniProt O43491)
3 | 76 |  |  | 4.1R80 (from UniProt P11171)
